Numbering of substitutions follows the chain as printed.
Columns and labels:
AE.A244 gD+ gp120 = biological target: T1, AE.A244 gD+ gp120 (HIV-1); test: ELISA
T1 construct: domain: gp120; also called AE.A244 gp120gD+

AE.92TH023 gp120 gD+ = biological target: T2, AE.92TH023 gp120 gD+ (HIV-1); test: ELISA
T2 construct: domain: gp120; also called AE.92TH023 gp12 gD+

C.1086 gp120 = C.1086 gp120 (HIV-1); test: ELISA
AE.97CNG2XF gp140CF [1] = biological target: T3, AE.97CNG2XF gp140CF (HIV-1); test: ELISA
T3 construct: also called E.97CNGX2F gp140CF

A.9004SS V1V2 Tags = biological target: T4, A.9004SS V1V2 Tags; test: ELISA OD405nm, bar chart, antibody concentration not given
T4 V1V2 tags construct: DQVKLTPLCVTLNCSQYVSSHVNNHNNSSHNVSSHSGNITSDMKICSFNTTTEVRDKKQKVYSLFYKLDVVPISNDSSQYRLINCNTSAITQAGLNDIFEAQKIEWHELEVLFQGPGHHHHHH

MLV gp70 carrier protein = biological target: T5, MLV gp70 carrier protein; test: as above
T5 construct: also called MuLV gp70
T5 carrier protein: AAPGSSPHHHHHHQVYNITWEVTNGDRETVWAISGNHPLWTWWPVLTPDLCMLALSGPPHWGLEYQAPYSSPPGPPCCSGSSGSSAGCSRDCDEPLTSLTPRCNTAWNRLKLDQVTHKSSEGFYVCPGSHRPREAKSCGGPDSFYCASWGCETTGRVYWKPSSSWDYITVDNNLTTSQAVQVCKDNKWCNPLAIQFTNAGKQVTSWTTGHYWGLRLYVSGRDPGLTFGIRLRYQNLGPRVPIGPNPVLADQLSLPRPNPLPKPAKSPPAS

C.CAP206 gp140CF.12 = C.CAP206 gp140CF.12 (HIV-1); test: as above
G.con 140CF = biological target: T6, G.con 140CF; test: as above
T6 construct: also called G.con gp140CF; G.con.env03 gp140CF

B.9021 gp140C = B.9021 gp140C (HIV-1); test: as above
AE.con env03 40CF = biological target: T7, AE.con env03 40CF; test: as above
T7 construct: also called AE.con gp140CF; AE.con.env03 gp140CF

B.62357 140C = biological target: T8, B.62357 140C; test: as above
T8 construct: also called B.62357 gp140C

gp70 B.CaseA2 V1/V2 = biological target: T9, gp70 B.CaseA2 V1/V2 (HIV-1 V1V2 on murine leukemia virus gp70); test: as above
T9 construct: also called B.gp70CaseA2 V1/V2; gp70 B.CaseAV1V2
T9 chain: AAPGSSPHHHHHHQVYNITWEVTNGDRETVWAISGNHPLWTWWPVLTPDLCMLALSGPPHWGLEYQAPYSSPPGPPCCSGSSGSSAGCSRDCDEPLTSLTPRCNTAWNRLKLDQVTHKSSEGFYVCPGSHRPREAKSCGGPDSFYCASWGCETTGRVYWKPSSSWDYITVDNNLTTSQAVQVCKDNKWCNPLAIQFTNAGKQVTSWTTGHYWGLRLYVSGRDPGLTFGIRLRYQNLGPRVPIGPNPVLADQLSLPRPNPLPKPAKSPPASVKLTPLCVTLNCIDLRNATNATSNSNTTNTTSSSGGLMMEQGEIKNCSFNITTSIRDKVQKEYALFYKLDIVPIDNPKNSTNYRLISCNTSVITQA

AE.97CNG2XF gp140CF [2] = biological target: T3, AE.97CNG2XF gp140CF; test: as above
B.63521_V1V2 Tags = test: as above
[3] = biological target: T10, J08 A.92RW020V1V2/N156QN160Q (HIV-1); test: ELISA, mAb 0.001-100 ug/ml on coated V1V2 scaffold, OD450
T10 construct: also called J08 A.92RW020VV1V2/N156QN160Q

J08 C.97ZA012V1V2 = biological target: T11, J08 C.97ZA012V1V2 (HIV-1); test: as above
T11 chain: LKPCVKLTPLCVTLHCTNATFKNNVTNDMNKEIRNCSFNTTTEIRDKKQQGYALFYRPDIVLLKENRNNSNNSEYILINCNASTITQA

[4] = biological target: T12, gp70 B.HXB2/BALV1V2/N156QN160Q (murine leukemia virus; HIV-1); test: as above
T12 chain: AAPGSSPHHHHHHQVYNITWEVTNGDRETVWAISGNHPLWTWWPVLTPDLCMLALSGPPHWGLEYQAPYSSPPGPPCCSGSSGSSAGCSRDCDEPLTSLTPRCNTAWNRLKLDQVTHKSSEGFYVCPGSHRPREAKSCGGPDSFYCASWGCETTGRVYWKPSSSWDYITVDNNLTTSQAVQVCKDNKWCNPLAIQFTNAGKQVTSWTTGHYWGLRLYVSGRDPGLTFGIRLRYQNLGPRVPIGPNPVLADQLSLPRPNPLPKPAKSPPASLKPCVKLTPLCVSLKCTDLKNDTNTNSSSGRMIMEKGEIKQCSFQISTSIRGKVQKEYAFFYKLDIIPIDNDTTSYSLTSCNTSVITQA

B1: CH59 (antibody, V domains shown)
VH: EVQLVESGGGLVQPGRSLRLSCAASGFTFDDGAMHWVRQAPGKGLEWVSGISWNSNIIAYADSVKGRFTISRDNAKNSLYLEMNSLRVEDTALYYCAKDSPRGELPLNYWGQGTLVTVSS
VL: SYELTQPPSVSVSPGQTARITCSGDALPKNYAYWYQQKSGQAPVLVIYEDSKRPSGIPERFSGSSSGTMATLTISGAQVEDEADYYCYSTDSSGNHRVFGGGTKLTVL
notes: also called mAb CH59
AE.A244 gD+ gp120
  EC50: 0.01 µg/mL
AE.92TH023 gp120 gD+
  EC50: 0.023 µg/mL
C.1086 gp120
  EC50: 0.02 µg/mL
AE.97CNG2XF gp140CF [1]
  EC50: 0.066 µg/mL

B2: CH59 reverted unmutated ancestor antibody (antibody, V domains shown)
VH: B1 VH with G32Y, N56G, I57S, A59G, E82Q, V88A, L107F, N108D
VL: B1 VL with N30K
notes: also called CH59 RUA; CH59_RUA
A.9004SS V1V2 Tags
  binding result: no binding (tested: not given)
MLV gp70 carrier protein
  binding result: no binding (tested: not given)
C.CAP206 gp140CF.12
  binding result: no binding (tested: not given)
G.con 140CF
  binding result: no binding (tested: not given)
B.9021 gp140C
  binding result: no binding (tested: not given)
AE.con env03 40CF
  binding result: no binding (tested: not given)
B.62357 140C
  binding result: no binding (tested: not given)
gp70 B.CaseA2 V1/V2
  binding result: no binding (tested: not given)
AE.97CNG2XF gp140CF [2]
  binding result: no binding (tested: not given)
B.63521_V1V2 Tags
  binding result: no binding (tested: not given)

B3: PG16 (antibody, V domains shown)
VH: QEQLVESGGGVVQPGGSLRLSCLASGFTFHKYGMHWVRQAPGKGLEWVALISDDGMRKYHSDSMWGRVTISRDNSKNTLYLQFSSLKVEDTAMFFCAREAGGPIWHDDVKYYDFNDGYYNYHYMDVWGKGTTVTVSS
VL: QSALTQPASVSGSPGQTITISCNGTSSDVGGFDSVSWYQQSPGKAPKVMVFDVSHRPSGISNRFSGSKSGNTASLTISGLHIEDEGDYFCSSLTDRSHRIFGGGTKVTVL
notes: also called mAb PG16; bnAb PG16
[3]
  binding result: no binding (tested: 100 ug/ml)
J08 C.97ZA012V1V2
  binding result: no binding (tested: 100 ug/ml)
[4]
  binding result: no binding (tested: 100 ug/ml)
